{"source": "patent US20190023748A1", "about": "(NAVIGEN, published 2019)", "binders": {"B1": {"name": "CPT31 (cholesterol-PIE12-2-trimer with PEG32 fourth-arm spacer) (peptide)", "peptide": "Ac-[dH][dP][dC][dD][dY][dP][dE][dW][dQ][dW][dL][dC][dE][dL]G[PEG4′]K-NH2", "modifications": "disulfide 3-12 (inferred); not fully specified (some residues); numbers in words are those of the source; also: PIE12-2 trimer on scaffold, fourth arm PEG28 + PEG4 with cholesteryl carbamate"}}, "assay_in_all_cases": "cell-based or functional assay", "key": {"[1]": {"molecular_target": "HIV-1 gp41 of strain JRFL (HIV-1 strain JRFL)"}, "[2]": {"molecular_target": "HIV-1 gp41 of isolate DJ263/GS003 (AG) (HIV-1 isolate DJ263/GS003)"}, "[3]": {"molecular_target": "HIV-1 gp41 of isolate D26830M4 (clade D) (HIV-1 isolate D26830M4)"}, "[4]": {"molecular_target": "HIV-1 gp41 of isolate KNH1088 (clade A) (HIV-1 isolate KNH1088)"}, "[5]": {"molecular_target": "HIV-1 gp41 of isolate MN/H9 (clade B) (HIV-1 isolate MN/H9)"}, "[6]": {"molecular_target": "HIV-1 gp41 of isolate Ba-L (clade B) (HIV-1 isolate Ba-L)"}, "[7]": {"molecular_target": "HIV-1 gp41 of isolate KSM4030 (clade A) (HIV-1 isolate KSM4030)"}, "[8]": {"molecular_target": "HIV-1 gp41 of isolate 3343IN (clade B) (HIV-1 isolate 3343IN)"}, "[9]": {"molecular_target": "HIV-1 gp41 of isolate 92UG029 (clade A) (HIV-1 isolate 92UG029)"}, "[10]": {"molecular_target": "HIV-1 gp41 of isolate CAM0008 (AG) (HIV-1 isolate CAM0008)"}, "[11]": {"molecular_target": "HIV-1 gp41 of isolate NP1251 (AE) (HIV-1 isolate NP1251)"}, "[12]": {"molecular_target": "HIV-1 gp41 of isolate E08364M4 (clade D) (HIV-1 isolate E08364M4)"}, "[13]": {"molecular_target": "HIV-1 gp41 of isolate NI1052 (AE) (HIV-1 isolate NI1052)"}, "[14]": {"molecular_target": "HIV-1 gp41 of isolate KNH1209 (clade A) (HIV-1 isolate KNH1209)"}, "[15]": {"molecular_target": "HIV-1 gp41 of isolate CAM0014 (AG) (HIV-1 isolate CAM0014)"}, "[16]": {"molecular_target": "HIV-1 gp41 of isolate 20635-4 (clade C) (HIV-1 isolate 20635-4)"}, "[17]": {"molecular_target": "HIV-1 gp41 of isolate 873 (clade B) (HIV-1 isolate 873)"}, "[18]": {"molecular_target": "HIV-1 gp41 of isolate CAM1970LE (AG) (HIV-1 isolate CAM1970LE)"}, "[19]": {"molecular_target": "HIV-1 gp41 of isolate 0503M02138 (AE) (HIV-1 isolate 0503M02138)"}, "[20]": {"molecular_target": "HIV-1 gp41 of isolate US1/GS0004 (clade B) (HIV-1 isolate US1/GS0004)"}, "[21]": {"molecular_target": "HIV-1 gp41 of isolate BZ167 (clade B) (HIV-1 isolate BZ167)"}, "[22]": {"molecular_target": "HIV-1 gp41 of isolate TZA68 (clade C) (HIV-1 isolate TZA68)"}, "[23]": {"molecular_target": "HIV-1 gp41 of isolate TZA246 (clade C) (HIV-1 isolate TZA246)"}, "[24]": {"molecular_target": "HIV-1 gp41 of isolate KNH1144 (clade A) (HIV-1 isolate KNH1144)"}, "[25]": {"molecular_target": "HIV-1 gp41 of isolate CAM0005 (AG) (HIV-1 isolate CAM0005)"}, "[26]": {"molecular_target": "HIV-1 gp41 of isolate CAM1475MV (AG) (HIV-1 isolate CAM1475MV)"}, "[27]": {"molecular_target": "HIV-1 gp41 of isolate CM235/GS020 (AE) (HIV-1 isolate CM235/GS020)"}, "[28]": {"molecular_target": "HIV-1 gp41 of isolate 93RW024 (clade A) (HIV-1 isolate 93RW024)"}, "[29]": {"molecular_target": "HIV-1 gp41 of isolate US4/GS007 (clade B) (HIV-1 isolate US4/GS007)"}, "[30]": {"molecular_target": "HIV-1 gp41 of isolate KER2008 (clade A) (HIV-1 isolate KER2008)"}, "[31]": {"molecular_target": "HIV-1 gp41 of isolate NP1525 (AE) (HIV-1 isolate NP1525)"}}, "note": "Bridge positions count the residues as written; N and C are the ends. Square brackets hold non-standard residues; d marks the D form. Primed or numbered codes have the meaning given here. PEG4′ = not defined here"}
{"binder": "B1", "values": [{"measurement": "Antiviral potency, IC50, JRFL pseudovirion entry assay", "setting": "[1]", "value": 0.015, "unit": "nM"}, {"measurement": "1 nM inhibition", "setting": "[2]", "value": 96.7, "unit": "%"}, {"measurement": "10 nM inhibition", "setting": "[2]", "value": 99.2, "unit": "%"}, {"measurement": "1 nM inhibition", "setting": "[3]", "value": 95.3, "unit": "%"}, {"measurement": "10 nM inhibition", "setting": "[3]", "value": 98.5, "unit": "%"}, {"measurement": "1 nM inhibition", "setting": "[4]", "value": 98.5, "unit": "%"}, {"measurement": "10 nM inhibition", "setting": "[4]", "value": 99.6, "unit": "%"}, {"measurement": "1 nM inhibition", "setting": "[5]", "value": 99.3, "unit": "%"}, {"measurement": "10 nM inhibition", "setting": "[5]", "value": 100, "unit": "%"}, {"measurement": "1 nM inhibition", "setting": "[6]", "value": 96.9, "unit": "%"}, {"measurement": "10 nM inhibition", "setting": "[6]", "value": 99.8, "unit": "%"}, {"measurement": "1 nM inhibition", "setting": "[7]", "value": 93.6, "unit": "%"}, {"measurement": "10 nM inhibition", "setting": "[7]", "value": 95.6, "unit": "%"}, {"measurement": "1 nM inhibition", "setting": "[8]", "value": 97.6, "unit": "%"}, {"measurement": "10 nM inhibition", "setting": "[8]", "value": 99.1, "unit": "%"}, {"measurement": "1 nM inhibition", "setting": "[9]", "value": 95.2, "unit": "%"}, {"measurement": "10 nM inhibition", "setting": "[9]", "value": 98.2, "unit": "%"}, {"measurement": "1 nM inhibition", "setting": "[10]", "value": 96.8, "unit": "%"}, {"measurement": "10 nM inhibition", "setting": "[10]", "value": 99.7, "unit": "%"}, {"measurement": "1 nM inhibition", "setting": "[11]", "value": 97, "unit": "%"}, {"measurement": "10 nM inhibition", "setting": "[11]", "value": 98.4, "unit": "%"}, {"measurement": "1 nM inhibition", "setting": "[12]", "value": 50.7, "unit": "%"}, {"measurement": "10 nM inhibition", "setting": "[12]", "value": 58.6, "unit": "%"}, {"measurement": "1 nM inhibition", "setting": "[13]", "value": 98, "unit": "%"}, {"measurement": "10 nM inhibition", "setting": "[13]", "value": 99.7, "unit": "%"}, {"measurement": "1 nM inhibition", "setting": "[14]", "value": 94.3, "unit": "%"}, {"measurement": "10 nM inhibition", "setting": "[14]", "value": 95.2, "unit": "%"}, {"measurement": "1 nM inhibition", "setting": "[15]", "value": 98.8, "unit": "%"}, {"measurement": "10 nM inhibition", "setting": "[15]", "value": 99.5, "unit": "%"}, {"measurement": "1 nM inhibition", "setting": "[16]", "value": 99, "unit": "%"}, {"measurement": "10 nM inhibition", "setting": "[16]", "value": 99.6, "unit": "%"}, {"measurement": "1 nM inhibition", "setting": "[17]", "value": 93.6, "unit": "%"}, {"measurement": "10 nM inhibition", "setting": "[17]", "value": 98.7, "unit": "%"}, {"measurement": "1 nM inhibition", "setting": "[18]", "value": 97.3, "unit": "%"}, {"measurement": "10 nM inhibition", "setting": "[18]", "value": 98.5, "unit": "%"}, {"measurement": "1 nM inhibition", "setting": "[19]", "value": 95.2, "unit": "%"}, {"measurement": "10 nM inhibition", "setting": "[19]", "value": 98, "unit": "%"}, {"measurement": "1 nM inhibition", "setting": "[20]", "value": 95.3, "unit": "%"}, {"measurement": "10 nM inhibition", "setting": "[20]", "value": 97.7, "unit": "%"}, {"measurement": "1 nM inhibition", "setting": "[21]", "value": 99.4, "unit": "%"}, {"measurement": "10 nM inhibition", "setting": "[21]", "value": 99.8, "unit": "%"}, {"measurement": "1 nM inhibition", "setting": "[22]", "value": 97.7, "unit": "%"}, {"measurement": "10 nM inhibition", "setting": "[22]", "value": 99.7, "unit": "%"}, {"measurement": "1 nM inhibition", "setting": "[23]", "value": 98.3, "unit": "%"}, {"measurement": "10 nM inhibition", "setting": "[23]", "value": 98.4, "unit": "%"}, {"measurement": "1 nM inhibition", "setting": "[24]", "value": 78.2, "unit": "%"}, {"measurement": "10 nM inhibition", "setting": "[24]", "value": 80.6, "unit": "%"}, {"measurement": "1 nM inhibition", "setting": "[25]", "value": 98.4, "unit": "%"}, {"measurement": "10 nM inhibition", "setting": "[25]", "value": 99.8, "unit": "%"}, {"measurement": "1 nM inhibition", "setting": "[26]", "value": 98.3, "unit": "%"}, {"measurement": "10 nM inhibition", "setting": "[26]", "value": 98.8, "unit": "%"}, {"measurement": "1 nM inhibition", "setting": "[27]", "value": 81.8, "unit": "%"}, {"measurement": "10 nM inhibition", "setting": "[27]", "value": 98.7, "unit": "%"}, {"measurement": "1 nM inhibition", "setting": "[28]", "value": 97, "unit": "%"}, {"measurement": "10 nM inhibition", "setting": "[28]", "value": 99.3, "unit": "%"}, {"measurement": "1 nM inhibition", "setting": "[29]", "value": 91.1, "unit": "%"}, {"measurement": "10 nM inhibition", "setting": "[29]", "value": 98.7, "unit": "%"}, {"measurement": "1 nM inhibition", "setting": "[30]", "value": 84.1, "unit": "%"}, {"measurement": "10 nM inhibition", "setting": "[30]", "value": 85.3, "unit": "%"}, {"measurement": "1 nM inhibition", "setting": "[31]", "value": 98.8, "unit": "%"}, {"measurement": "10 nM inhibition", "setting": "[31]", "value": 99.3, "unit": "%"}]}
